# Data: US20050170334A1 (published 2005)
# T1: OVA (UniProt P01012 2-386)
# T1 sequence: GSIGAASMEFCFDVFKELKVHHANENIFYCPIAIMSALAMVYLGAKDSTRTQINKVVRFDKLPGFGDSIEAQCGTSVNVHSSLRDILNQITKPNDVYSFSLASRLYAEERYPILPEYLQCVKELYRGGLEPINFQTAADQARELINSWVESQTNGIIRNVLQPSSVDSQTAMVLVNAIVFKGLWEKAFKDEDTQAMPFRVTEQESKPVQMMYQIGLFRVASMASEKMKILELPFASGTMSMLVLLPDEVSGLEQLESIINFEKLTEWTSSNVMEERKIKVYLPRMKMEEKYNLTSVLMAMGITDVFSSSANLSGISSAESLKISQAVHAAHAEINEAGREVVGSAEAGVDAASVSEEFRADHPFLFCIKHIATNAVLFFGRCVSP
# B1: human anti-M2 antibody C40 (antibody, V domains shown)
# VH: QLQLQESGPGLVKPSETLSLTCTVSGGSISSSFYYCGWIRQPPGKGLEWIGSIYYRGSTYYNPSLKSRVTISVDTSKNQFSLKLSSVTAADTAVYYCARRVTMVRGVKGDYFDYWGQGTLVTVSS
# VL: DIQMTQSPSSLSASVGDRVTITCRASQGISSWLAWYQQKPEKVPKSLIYAASSLQSGVPSRFSGSGSGTDFTLTISSLQPEDFATYYCQQYNYYPLTFGGGTKVEIKR
# B2: C40G1 (antibody, V domains shown)
# VH: QLQLQESGPGLVKPSETLSLTCTVSGGSISSSFYYCGWIRQPPGKGLEWIGSIYYRGSTYYNPSLKSRVTISVDTSKNQFSLKLSSVTAADTAVYYCARRVTMVRGVKGDYFDYWGQGTLVTVSS
# VL: DIQMTQSPSSLSASVGDRVTITCRASQGISSWLAWYQQKPEKVPKSLIYAASSLQSGVPSRFSGSGSGTDFTLTISSLQPEDFATYYCQQYNYYPLTFGGGTKVEIKR
# B3: L66 (antibody, V domains shown)
# VH: EVQLVESGGGVVRPGGSLRLSCAASGFTFDDYGMSWVRQAPGKGLEWVSGINWNGGSTGYADSVKGRFTISRDNAKNSLYLQMNSLRAEDTALYYCARDRVTMVRGVIMDYYGMDVWGQGTTVTVSS
# VL: QTVVTQEPSLTVSPRGTVTLTCSSSTGAVTSGYYPGWFQLKPGQAPMSLIYSARKKHSWTPARFSGSLLGGKAALTLSGVQPEDEAEYYCLLYYGGAYVFGTGTKVTVLG
# B4: N547 (antibody, V domains shown)
# VH: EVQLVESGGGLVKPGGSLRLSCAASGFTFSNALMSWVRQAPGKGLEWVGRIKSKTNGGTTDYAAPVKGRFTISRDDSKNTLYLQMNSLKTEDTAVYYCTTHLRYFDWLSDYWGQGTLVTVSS
# VL: QSVLTQPPSMSAAPGQKVTISCSGSSSNIGNNYISWYQQLPGTAPKVLIYDNNKRPSGIPDRFSGSKSGTSATLGITGLQTGDEADYYCGSWDSSLSAGVFGTGTKVTVLG
# Columns and labels:
# BSA = molecular target: T2, BSA (UniProt P02769 25-607); experiment: ELISA
# T2 construct: carrier for immunization
# OVA = molecular target: T1, OVA; experiment: ELISA
# T2 sequence (P02769 25-607 limits assumed): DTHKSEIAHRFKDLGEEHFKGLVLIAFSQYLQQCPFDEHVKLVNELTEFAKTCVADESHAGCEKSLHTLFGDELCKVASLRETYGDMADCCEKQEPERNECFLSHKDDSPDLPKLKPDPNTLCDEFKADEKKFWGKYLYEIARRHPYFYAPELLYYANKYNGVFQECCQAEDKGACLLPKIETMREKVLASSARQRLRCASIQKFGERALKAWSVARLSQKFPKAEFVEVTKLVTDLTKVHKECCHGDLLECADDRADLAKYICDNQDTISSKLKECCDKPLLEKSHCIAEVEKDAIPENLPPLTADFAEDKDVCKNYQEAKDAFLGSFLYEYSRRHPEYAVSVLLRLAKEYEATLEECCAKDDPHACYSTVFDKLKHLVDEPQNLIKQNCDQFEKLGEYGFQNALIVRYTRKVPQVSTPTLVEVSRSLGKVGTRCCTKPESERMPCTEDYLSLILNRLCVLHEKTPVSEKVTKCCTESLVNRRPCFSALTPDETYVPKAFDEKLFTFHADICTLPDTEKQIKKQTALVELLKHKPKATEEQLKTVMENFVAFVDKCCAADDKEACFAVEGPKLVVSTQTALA
Binder,binding result (BSA),binding result (OVA)
B1,no binding (tested: OD450 below 0.1),no binding (tested: OD450 below 0.1)
B2,no binding (tested: OD450 below 0.1),no binding (tested: OD450 below 0.1)
B3,no binding (tested: OD450 below 0.1),no binding (tested: OD450 below 0.1)
B4,no binding (tested: OD450 below 0.1),no binding (tested: OD450 below 0.1)
